From the supplement of paper PMC9233669
Fewer inactive variants are shown than the library holds.

Assays:
[1] = system: biotinyl-Ile-oxazolone; assay: self-aminoacylation, catalytic enhancement (BIO) (fold over background); higher = more active; k-Seq, kA / k0A0; sequences stand for … in GGGAAUGGAUCCACAUCUACGAAUUC…UUCACUGCAGACUUGACGAAGCUG
Method in brief: (§1)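 Mutagenized RNA pools with a 21-nt variable region (0.43 μM) were reacted with each biotinyl-aminoacyl-oxazolone at 2–1250 μM for 90 minutes at room temperature, in 50 μL HEPES/NaCl/KCl/MgCl2/CaCl2 buffer containing 5% acetonitrile at pH 6.9–7.0. RNA captured on streptavidin was quantified by triplicate qPCR and by Illumina sequencing. The fraction reacted for each sequence was fit to a pseudo-first-order model with bootstrapping, and catalytic enhancement is the median kA divided by the uncatalyzed rate, taken as the low-activity peak of a bimodal Gaussian fit.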

[2] = system: biotinyl-Met-oxazolone; assay: self-aminoacylation, catalytic enhancement (BMO) (fold over background); higher = more active; k-Seq, kA / k0A0; sequences stand for … in GGGAAUGGAUCCACAUCUACGAAUUC…UUCACUGCAGACUUGACGAAGCUG
Method in brief: as §1

[3] = system: biotinyl-Phe-oxazolone; assay: self-aminoacylation, catalytic enhancement (BFO) (fold over background); higher = more active; k-Seq, kA / k0A0; sequences stand for … in GGGAAUGGAUCCACAUCUACGAAUUC…UUCACUGCAGACUUGACGAAGCUG
Method in brief: as §1

[4] = system: biotinyl-Leu-oxazolone; assay: self-aminoacylation, catalytic enhancement (BLO) (fold over background); higher = more active; k-Seq, kA / k0A0; sequences stand for … in GGGAAUGGAUCCACAUCUACGAAUUC…UUCACUGCAGACUUGACGAAGCUG
Method in brief: as §1

[5] = system: biotinyl-Trp-oxazolone; assay: self-aminoacylation, catalytic enhancement (BWO) (fold over background); higher = more active; k-Seq, kA / k0A0; sequences stand for … in GGGAAUGGAUCCACAUCUACGAAUUC…UUCACUGCAGACUUGACGAAGCUG
Method in brief: as §1

[6] = system: biotinyl-Val-oxazolone; assay: self-aminoacylation, catalytic enhancement (BVO) (fold over background); higher = more active; k-Seq, kA / k0A0; sequences stand for … in GGGAAUGGAUCCACAUCUACGAAUUC…UUCACUGCAGACUUGACGAAGCUG
Method in brief: as §1

Row | Sequence | self-aminoacylation [1] | self-aminoacylation [2] | self-aminoacylation [3] | self-aminoacylation [4] | self-aminoacylation [5] | self-aminoacylation [6]
1 | AGUACCCUGGUCAUCGCGUGA [Fam2.1 aminoacylation ribozyme variant] | 8.36 | 19.4 | 128 | 20.3 | 20.5 | 12.2
2 | CUACACUUCAAGCAAUCGGGC [Fam1B.1 aminoacylation ribozyme variant] | 1.48 | 1.95 | 0.999 | 1.27 | 2.02 | 1.42
3 | AAUACCCUGGUCAUCCAGUGA [Fam2.1 aminoacylation ribozyme variant] | 3.01 | 5.25 | 10.6 | 4.96 | 5.84 | 2.88
4 | CCACACUUCCAGCAAUCGGAC [Fam1B.1 aminoacylation ribozyme variant] | 0.999 | 0.797 | 0.784 | 0.592 | 0.846 | 1.1
5 | CUACCUCAAAUAAUCGGUCUG [Fam1A.1 aminoacylation ribozyme variant] | 1.05 | 1.08 | 1.1 | 1.12 | 1.23 | 0.863
6 | CUACUUCGAACAACCGGUCUG [Fam1A.1 aminoacylation ribozyme variant] | 0.822 | 0.734 | 0.394 | 0.836 | 0.949 | 1.21
7 | CUACUUAAACCAAUCGGUCUG [Fam1A.1 aminoacylation ribozyme variant] | 0.88 | 0.693 | 0.538 | 0.594 | 0.473 | 0.67
8 | AAGUUUGCUAAAAGUCGGAAG [Fam3.1 aminoacylation ribozyme variant] | 0.814 | 0.755 | 5.57 | 0.778 | 1.22 | 0.924
9 | UUUCACCUAGGUCAUCGGGUU [Fam2.2 aminoacylation ribozyme variant] | 6.15 | 10.4 | 44.3 | 12.6 | 7.39 | 5.7
10 | AUUACCCUGGUCAACGAGUGC [Fam2.1 aminoacylation ribozyme variant] | 0.908 | 0.848 | 0.478 | 1.01 | 0.892 | 0.903
11 | CUACUUCCAACAUUCGGUCUG [Fam1A.1 aminoacylation ribozyme variant] | 1.17 | 1.07 | 1.68 | 1.54 | 1.16 | 1.39
12 | CAACACUCCAAGCAAUCGGUC [Fam1B.1 aminoacylation ribozyme variant] | 1.13 | 1.02 | 1.67 | 0.956 | 1.77 | 1.06
13 | AAUCACCUAGGUCAUCGGGUG [Fam2.2 aminoacylation ribozyme variant] | 5.67 | 7.92 | 42.9 | 9.15 | 8.58 | 5.65
14 | CCACACUUCAAGCACUCGCUC [Fam1B.1 aminoacylation ribozyme variant] | 2.02 | 2.25 | 2.93 | 2.39 | 1.51 | 2.07
15 | AUGGCCCUGGUCAUCGAGUGA [Fam2.1 aminoacylation ribozyme variant] | 27.1 | 82.9 | 729 | 84.6 | 76.5 | 29.1
16 | AAGUUUGCUAAUAGUCCAAAG [Fam3.1 aminoacylation ribozyme variant] | 1.21 | 1.34 | 3.72 | 0.966 | 1.75 | 1.18
17 | CUACUUCAAACAAUCGGCCAG [Fam1A.1 aminoacylation ribozyme variant] | 1.44 | 1.02 | 1.84 | 1.19 | 0.954 | 1.36
18 | CUACGUAAAACAAUCGGUCUG [Fam1A.1 aminoacylation ribozyme variant] | 1.18 | 0.999 | 1.38 | 0.755 | 0.819 | 0.999
19 | CCACAUUUCAAGCAAUCGGGC [Fam1B.1 aminoacylation ribozyme variant] | 3.08 | 3.55 | 1.7 | 2.78 | 2.91 | 2.7
20 | UUUUACCUAGGUCAUCGGGUG [Fam2.2 aminoacylation ribozyme variant] | 6.78 | 10.3 | 56.1 | 13.5 | 10.4 | 6.67
21 | AAGUUUGCUAAUAUUCGCAAA [Fam3.1 aminoacylation ribozyme variant] | 1.2 | 1.75 | 0.994 | 1.25 | 2.04 | 1.32
22 | CUACUCCAAACAAUCCGUCUG [Fam1A.1 aminoacylation ribozyme variant] | 0.838 | 0.636 | 0.642 | 0.759 | 0.582 | 0.821
23 | GUUCACCUAGGCCAUCGGGUG [Fam2.2 aminoacylation ribozyme variant] | 3.17 | 3.77 | 25.4 | 3.61 | 3.64 | 3.86
24 | AUUACGAUGGUCAUCGAGUGA [Fam2.1 aminoacylation ribozyme variant] | 2.99 | 3.43 | 12.3 | 4.54 | 4.79 | 3.17
25 | AUUACCCUGGUCACCGAGUCA [Fam2.1 aminoacylation ribozyme variant] | 1.43 | 1.45 | 0.799 | 1.75 | 1.84 | 1.49
26 | AUUACCCUGAUCAUCGAGUAA [Fam2.1 aminoacylation ribozyme variant] | 1.25 | 1.33 | 1.09 | 1.02 | 0.877 | 1.32

Row | Sequence | self-aminoacylation [1] | self-aminoacylation [2] | self-aminoacylation [3] | self-aminoacylation [4] | self-aminoacylation [5] | self-aminoacylation [6]
27 | AAUUUCGCUAAUAGUCGCAAG [Fam3.1 aminoacylation ribozyme variant] | 2.19 | 1.94 | 2.64 | 2.24 | 1.9 | 1.88
28 | AAGUUUGUUAAUUGUCGCAAG [Fam3.1 aminoacylation ribozyme variant] | 1.09 | 0.992 | 0.994 | 0.933 | 0.92 | 0.926
29 | AAGUUUGCACAUAGUCGCAAG [Fam3.1 aminoacylation ribozyme variant] | 0.804 | 0.656 | 0.76 | 0.586 | 0.682 | 0.73
30 | AUUCAACUCGGUCAUCGGGUG [Fam2.2 aminoacylation ribozyme variant] | 4.15 | 6.48 | 67.4 | 9.77 | 7.4 | 3.84
31 | AAGUUUGCUAAUAGUCACAAC [Fam3.1 aminoacylation ribozyme variant] | 0.673 | 0.6 | 1.47 | 0.637 | 0.593 | 0.621
32 | AUUCUCCUAGGGCAUCGGGUG [Fam2.2 aminoacylation ribozyme variant] | 2.92 | 4.21 | 28.7 | 4.7 | 3.58 | 3.73
33 | AUUACCCUGGUCUCCGAGUGA [Fam2.1 aminoacylation ribozyme variant] | 3.95 | 7.41 | 64.4 | 8.91 | 9.46 | 4.33
34 | AAGUUCGCUCAUAGUCGCAAG [Fam3.1 aminoacylation ribozyme variant] | 2.23 | 2.01 | 7.56 | 1.96 | 2.26 | 1.77
35 | AUUAACCUAGGUCAUCGAGUG [Fam2.2 aminoacylation ribozyme variant] | 7.02 | 8.83 | 17.9 | 11.7 | 4.39 | 5.78
36 | AUUACCCUGAUCACCGAGUGA [Fam2.1 aminoacylation ribozyme variant] | 3.08 | 7.33 | 42.1 | 7.42 | 6.75 | 3.74
37 | AUUACGCUGGUCUUCGAGUGA [Fam2.1 aminoacylation ribozyme variant] | 3.35 | 4.27 | 12.9 | 5.46 | 5.95 | 3.32
38 | CCACAGUACAAGCAAUCGGUC [Fam1B.1 aminoacylation ribozyme variant] | 1.17 | 1.27 | 1.77 | 1.03 | 0.861 | 1.24
39 | AAGUUUGCUAAUAGUUGCAAC [Fam3.1 aminoacylation ribozyme variant] | 1.06 | 0.933 | 0.862 | 0.853 | 0.841 | 0.83
40 | CUACAUUAAACAAUCGGUCUG [Fam1A.1 aminoacylation ribozyme variant] | 0.992 | 1.14 | 0.647 | 0.898 | 0.75 | 0.819
41 | AUUCACCUAGGCCAGCGGGUG [Fam2.2 aminoacylation ribozyme variant] | 3.59 | 4.21 | 24.8 | 4.78 | 3.78 | 4.07
42 | AUUAGCCCGGUCAUCGAGUGA [Fam2.1 aminoacylation ribozyme variant] | 3.45 | 6.23 | 55.9 | 6.64 | 7.74 | 3.57
43 | CCACACUUCUAGCAAUUGGUC [Fam1B.1 aminoacylation ribozyme variant] | 0.611 | 0.638 | 0.539 | 0.636 | 0.401 | 0.687
44 | ACGUUUGCUUAUAGUCGCAAG [Fam3.1 aminoacylation ribozyme variant] | 1.32 | 1.68 | 1.76 | 1.67 | 1.75 | 1.46
45 | CCACACUCCAAGCAAUCGGUG [Fam1B.1 aminoacylation ribozyme variant] | 4.43 | 7.47 | 59.9 | 9.97 | 6.72 | 4.45
46 | AUUACCCUGAUCGUCGAGUGA [Fam2.1 aminoacylation ribozyme variant] | 0.89 | 0.75 | 0.434 | 0.865 | 0.86 | 0.862
47 | ACUCACCAAGGUCAUCGGGUG [Fam2.2 aminoacylation ribozyme variant] | 4.43 | 5.24 | 46.4 | 7.13 | 6.28 | 4.52
48 | AUUCUCCUAGGUCUUCGGGUG [Fam2.2 aminoacylation ribozyme variant] | 4.96 | 7.28 | 44.1 | 8.25 | 7.39 | 4.77
49 | AUUACCCUGGUAACCGAGUGA [Fam2.1 aminoacylation ribozyme variant] | 5.22 | 12.5 | 96.5 | 12.2 | 14.2 | 5.58
50 | CUACUGCUAACAAUCGGUCUG [Fam1A.1 aminoacylation ribozyme variant] | 0.538 | 0.491 | 0.437 | 0.597 | 0.418 | 0.559
51 | AUUACGCUGGUCAUUGAGUGA [Fam2.1 aminoacylation ribozyme variant] | 3.29 | 5.32 | 21.2 | 5.87 | 6.92 | 3
